Measured values from PMC7608592, “Allomorphy as a mechanism of post-translational control of enzyme activity” (Nature Communications, 2020).

Key:
[1] = biological target: T1, β-phosphoglucomutase (βPGM) (Lactococcus lactis, UniProt P71447, P146A); experiment: NMR: phosphorylation of the purified enzyme (B^P formed) and turnover of F16BP; type: biochemical
T1 construct: gene pgmB

[2] = biological target: T2, β-phosphoglucomutase (βPGM) (Lactococcus lactis, UniProt P71447); experiment: real-time NMR (A:F16BP complex observed); phosphorylating agent in coupled assay; type: binding
T2 construct: gene pgmB

[3] = biological target: T2, β-phosphoglucomutase (βPGM); experiment: X-ray crystal structure at […] Å; NMR titration (1H15N-TROSY); type: binding
[4] = tested on: O=P(O)(O)OC[C@H]1O[C@@H](OP(=O)(O)O)[C@H](O)[C@@H](O)[C@@H]1O; experiment: purified protein; details: Mg2+ active site
[5] = tested on: O=P(O)(O)O[C@@H]1O[C@H](CO)[C@@H](O)[C@H](O)[C@H]1O; experiment: purified protein; details: Mg2+ active site

| Compound | NMR: phosphorylation of the purified enzyme (B^P formed) and turnover of F16BP [1] | real-time NMR (A:F16BP complex observed); phosphorylating agent in coupled assay [2] | X-ray crystal structure at 2.1 Å; NMR titration (1H15N-TROSY) [3] | Km [4] [µM] | Km [5] [µM] |
| --- | --- | --- | --- | --- | --- |
| O=P(O)(O)OC[C@H]1OC(O)(COP(=O)(O)O)[C@@H](O)[C@@H]1O (mixture of isomers) [F16BP, fructose 1,6-bisphosphate] | On addition of F16BP to βPGMP146A, the two dominant species observed are conformer B and B^P | A minor population of the A:F16BP complex is also present |  |  |  |
| O=C(O)CC(O)(CC(=O)O)C(=O)O [citrate] |  |  | Citrate is coordinated in the active site by residues T16, H20, V47–R49 and A115–K117 and mimics substrate binding |  |  |
| β-phosphoglucomutase (βPGM) (Lactococcus lactis subsp. lactis Il1403) |  |  |  | 8.5 ± 0.3 | 91 ± 4 |
| β-phosphoglucomutase (βPGM) (Lactococcus lactis subsp. lactis Il1403; P146A) |  |  |  | 175 ± 3 | 157 ± 3 |
